# Measured values as given in PMC5716075, “Conserved asymmetry underpins homodimerization of Dicer-associated double-stranded RNA-binding proteins” (Nucleic Acids Research, 2017).
# T1: full length (FL) PACT (protein activator of PKR) (human), O75569
# T1 chain: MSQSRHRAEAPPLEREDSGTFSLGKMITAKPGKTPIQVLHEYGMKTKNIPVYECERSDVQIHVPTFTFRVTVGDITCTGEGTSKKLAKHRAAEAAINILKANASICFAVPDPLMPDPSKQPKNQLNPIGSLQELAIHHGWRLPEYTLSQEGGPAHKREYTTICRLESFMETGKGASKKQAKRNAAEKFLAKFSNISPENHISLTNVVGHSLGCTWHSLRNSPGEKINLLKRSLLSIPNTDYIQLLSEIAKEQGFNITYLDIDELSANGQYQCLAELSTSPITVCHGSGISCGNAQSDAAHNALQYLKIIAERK
# B1: PACT-Ext-D3 (PACT residues 208-313, dsRBD 3 with the conserved N-terminal extension), wild type (domain or fragment, human, UniProt O75569 208-313, looked up)
# chain: GHSLGCTWHSLRNSPGEKINLLKRSLLSIPNTDYIQLLSEIAKEQGFNITYLDIDELSANGQYQCLAELSTSPITVCHGSGISCGNAQSDAAHNALQYLKIIAERK
# notes: also called WT PACT-Ext-D3; source: E. coli BL21 (DE3), purified (HisTrap, tag removed with 3C protease, Superdex S75); not shown: His6, N-terminal, cleaved; MBP, N-terminal, cleaved
# B2: Loqs-D3 (Loquacious residues 392-463, dsRBD 3), wild type (domain or fragment, Drosophila, UniProt Q9VJY9 392-463, looked up)
# chain: IDYIKLLGEIATENQFEVTYVDIEEKTFSGQFQCLVQLSTLPVGVCHGSGPTAADAQRHAAQNALEYLKIMT
# notes: Loquacious (Loqs), Drosophila, residues 392-463 (dsRBD 3, Type B); also called WT Loqs-D3; source: E. coli BL21 (DE3), purified (GSTrap, tag removed with tobacco etch virus protease, size exclusion)
# B3: R353H,R354N TRBP-Ext-D3 (PACT-like variant of TRBP-Ext-D3) (domain or fragment, human, UniProt Q15633 258-366, looked up)
# chain: NRGPGCTWDSLRNSVGEKILSLRSCSLGSLGALGPACCRVLSELSEEQAFHVSYLDIEELSLSGLCQCLVELSTQPATVCHGSATTREAARGEAAHNALQYLKIMAGSK
# notes: source: E. coli BL21 (DE3), purified (HisTrap, tag removed with 3C protease, Superdex S75); not shown: His6, N-terminal, cleaved; MBP, N-terminal, cleaved
# B4: full length (FL) PACT (protein activator of PKR), O75569 1-313 (natural protein)
# chain: T1 chain
# B5: PACT-D3 (PACT residues 239-313, core dsRBD 3), wild type (domain or fragment, human, UniProt O75569 239-313, looked up)
# chain: TDYIQLLSEIAKEQGFNITYLDIDELSANGQYQCLAELSTSPITVCHGSGISCGNAQSDAAHNALQYLKIIAERK
# notes: Grown in M9 with 15N ammonium chloride (and 13C glucose for 3D NMR samples); also called WT PACT-D3; source: E. coli BL21 (DE3), purified (HisTrap, tag removed with 3C protease, Superdex S75); not shown: His6, N-terminal, cleaved; MBP, N-terminal, cleaved
# Experiments:
# [1] = target: the molecule itself; assay: SEC-MALS; SEC-MALLS; Superdex S75 10/30 (except where otherwise noted), 20 mM MES pH 6.5, 200 mM NaCl, 1 mM dithiothreitol, 0.5 ml/minute; 100 μl of protein at 2–5 mg/ml injected
# [2] = target: T1, full length (FL) PACT (protein …); assay: as above; details: remark: other sources report otherwise
Binder,stoichiometry N [1],stoichiometry N [2]
B1,2,
B2,2,
B3,2,
B4,,2
B5,2,
